# Laboratory results as given in publication PMC5095618 (Chemico-biological interactions, 2015).
# B1: mouse anti-HuBChE monoclonal antibody 11D8 (antibody, V domains shown)
# VH: QVQLQQSGAELARPGASVKLSCKASGYTFTSQWLQWVKQRPGQGLEWIGAIYPGDGDTRYTQKFKGKATLTADKSSSTAYMQLTNLAPEDSAVYYCARSSMDYWGQGTSVTVSS
# VL: DILLTQSPAILSVSPGERVRLSCRASQSCGTSIYWYQQRTNGSPRLLIMYASEPFSGIPSRFSGSGSGTDFTLSINSVESEDIADYYCQQSNSWPWTFGGGTRLEIK
# B2: mouse anti-HuBChE monoclonal antibody B2 12-1 (antibody, V domains shown)
# VH: EVQLQQSGPELVKPGASVKISCKASGYTFTDYSMHWVKLSHGKSLEWIGYIYPYNDDTDYNQKFKTKATLTVDSSSSITYLELRSLTSEDSAVYYCARSDGYSYYFDYWGQGTTLTVSS
# VL: DIVMTQSPATLSVTPGDRVSLSCRASQSISDYLHWYQQKSHESPRLLIKYASQSISGIPSRFSGGGSGSDFTLSINSVEPEDVGVYYCQNGHRFPLTFGAGTKLELK
# Key:
# human albumin = human albumin (Homo sapiens, UniProt P02768); test: affinity purification with mass spectrometry
# [1] = molecular target: T1, Human butyrylcholinesterase (Homo sapiens, UniProt P06276); test: ELISA
# [2] = molecular target: T1, Human butyrylcholinesterase; test: SPR
# [3] = molecular target: T1, Human butyrylcholinesterase; test: BLI
# T1 sequence (P06276 29-602): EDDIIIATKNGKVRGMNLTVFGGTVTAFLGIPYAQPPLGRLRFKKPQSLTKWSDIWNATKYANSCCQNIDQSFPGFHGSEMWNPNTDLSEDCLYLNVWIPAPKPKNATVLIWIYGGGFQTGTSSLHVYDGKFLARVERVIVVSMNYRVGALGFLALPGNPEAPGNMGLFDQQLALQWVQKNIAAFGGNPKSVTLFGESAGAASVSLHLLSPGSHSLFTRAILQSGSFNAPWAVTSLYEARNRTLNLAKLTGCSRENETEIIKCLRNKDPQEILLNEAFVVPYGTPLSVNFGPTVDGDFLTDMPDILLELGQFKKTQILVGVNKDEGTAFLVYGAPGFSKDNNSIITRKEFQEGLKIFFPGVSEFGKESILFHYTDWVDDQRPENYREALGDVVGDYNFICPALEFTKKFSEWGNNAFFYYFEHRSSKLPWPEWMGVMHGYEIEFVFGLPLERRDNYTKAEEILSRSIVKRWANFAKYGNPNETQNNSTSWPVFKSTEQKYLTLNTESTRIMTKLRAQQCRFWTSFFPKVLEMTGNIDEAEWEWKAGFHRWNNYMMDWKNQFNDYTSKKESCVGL
# Sequence of human albumin (P02768 25-609): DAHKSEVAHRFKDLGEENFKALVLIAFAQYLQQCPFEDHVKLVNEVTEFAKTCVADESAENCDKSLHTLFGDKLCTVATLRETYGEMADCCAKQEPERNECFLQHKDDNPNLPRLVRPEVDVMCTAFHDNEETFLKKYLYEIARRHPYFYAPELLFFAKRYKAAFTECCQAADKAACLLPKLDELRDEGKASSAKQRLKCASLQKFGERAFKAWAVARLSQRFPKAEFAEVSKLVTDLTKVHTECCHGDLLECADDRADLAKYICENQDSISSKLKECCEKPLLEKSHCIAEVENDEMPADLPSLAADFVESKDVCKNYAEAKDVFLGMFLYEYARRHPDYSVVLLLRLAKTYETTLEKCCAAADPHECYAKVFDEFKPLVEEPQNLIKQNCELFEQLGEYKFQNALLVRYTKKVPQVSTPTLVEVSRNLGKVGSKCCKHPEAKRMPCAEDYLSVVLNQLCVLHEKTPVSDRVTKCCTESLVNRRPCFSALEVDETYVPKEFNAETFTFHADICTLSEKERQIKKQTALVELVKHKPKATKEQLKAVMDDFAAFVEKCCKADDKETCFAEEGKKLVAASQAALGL
Binder,binding result (human albumin),Kd [1],Kd [2],kon [3]
B1,binds,0.26 nM,0.9 nM,
B2,,1.41 nM,0.14 nM,800000 to 1.2e+06 M⁻¹ s⁻¹
